Measured values: PMC11804793, “Characterization of a C-methyltransferase from Streptomyces griseoviridis – crystal structure, mechanism, and substrate scope” (Chemical Science, 2025)
One block for each molecule: values may come before it.

Key:
[1] = biological target: T1, SgMT (Streptomyces griseoviridis, UniProt A0A918GRY4); test: X-ray crystallography, […] Å; format: binding; settings: non-methylated form of the cofactor, co-crystallised; cWW in the sample but not seen in density
T1 construct: gene GCM10010238_52040; C-terminally His-tagged for kinetics, produced in E. coli BL21 (DE3), Ni-NTA purified; dimer; residues before T7 disordered in crystal
T1 sequence (A0A918GRY4 1-269): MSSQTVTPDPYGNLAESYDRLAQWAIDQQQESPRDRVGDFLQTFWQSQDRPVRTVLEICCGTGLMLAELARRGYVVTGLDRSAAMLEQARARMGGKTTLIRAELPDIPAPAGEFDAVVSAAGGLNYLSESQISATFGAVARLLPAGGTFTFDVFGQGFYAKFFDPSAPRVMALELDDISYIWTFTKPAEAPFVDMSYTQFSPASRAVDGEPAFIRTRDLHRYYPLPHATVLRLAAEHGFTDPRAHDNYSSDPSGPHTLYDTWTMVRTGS

[2] = biological target: SAM-dependent indole C3-methyltransferase SgMT from Streptomyces griseoviridis (Streptomyces griseoviridis); test: crystal structure; SgMT crystallised in the presence of SAH (cWW included in the sample but not seen); space group P4(1)2(1)2, three protein chains per asymmetric unit; dmin 1.47 Å
[3] = substrate: O=C1N[C@@H](Cc2c[nH]c3ccccc23)C(=O)N[C@H]1Cc1c[nH]c2ccccc12; test: MTase Glo luminescence assay (SAH formation), Michaelis-Menten; format: biochemical, Streptomyces griseoviridis; settings: co-substrate SAM; C-terminally His-tagged enzyme

Molecule: Nc1ncnc2c1ncn2[C@@H]1O[C@H](CSCC[C@H](N)C(=O)O)[C@@H](O)[C@H]1O [SAH]
X-ray crystallography, 1.47 Å [1]: we crystallised the protein in the presence of the cofactor (using the non-methylated form, SAH)

stoichiometry N [2]: 2
Molecule: SAM-dependent indole C3-methyltransferase SgMT from Streptomyces griseoviridis (enzyme)

B1: SgMT (Streptomyces griseoviridis) (protein)
chain: T1 sequence (A0A918GRY4 1-269)
notes: C-terminally His-tagged for kinetics, produced in E. coli BL21 (DE3), Ni-NTA purified; dimer; residues before T7 disordered in crystal
Km [3]: 10.53 ± 2.01 µM
kcat [3]: 0.0025 s⁻¹
